Assay [1] deals with monkey PD-1 (ACRO, His tag) (monkey) (UniProt B0LAJ3). Nature of the assay: ELISA, monkey PD-1 (His tag) coated, anti-human IgG Fc-HRP.
For assay [2], the target named is human VEGF (ACRO, His tag) (human) (UniProt P15692). Nature of the assay: ELISA, human VEGF (His tag) coated, anti-human IgG Fc-HRP.
Assay [3] addresses biotin-labeled human VEGF (ACRO, biotinylated protein) (human) (UniProt P15692). Nature of the assay: dual (bridging) ELISA: human PD-1 (His tag) coated, antibody, then biotinylated human VEGF, streptavidin-HRP. For orientation: ELISA stands for enzyme-linked immunosorbent assay.

Sequence of monkey PD-1 (ACRO, His tag) (monkey) (B0LAJ3 entry or part of it limits assumed, form in doubt): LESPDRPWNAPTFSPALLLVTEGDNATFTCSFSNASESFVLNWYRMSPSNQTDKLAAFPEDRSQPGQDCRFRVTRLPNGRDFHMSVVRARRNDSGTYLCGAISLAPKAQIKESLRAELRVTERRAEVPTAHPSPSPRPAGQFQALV
Sequence of biotin-labeled human VEGF (ACRO, biotinylated protein) (human) (P15692 other isoform, or with tags, fused parts or gaps limits assumed): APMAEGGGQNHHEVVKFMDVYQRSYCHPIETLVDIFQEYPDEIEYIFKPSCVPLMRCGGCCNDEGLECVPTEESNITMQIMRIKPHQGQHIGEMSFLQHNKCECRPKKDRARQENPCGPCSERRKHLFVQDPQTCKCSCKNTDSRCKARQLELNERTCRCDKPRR
Sequence of human VEGF (ACRO, His tag) (human) (P15692 other isoform, or with tags, fused parts or gaps limits assumed): as above

In the case of Keytruda (antibody), in assay [1], the EC50 (as a rule, the concentration at which the effect is half-maximal) came to 0.187 nM and the TOP OD turned out to be 3.08 OD450.

In assay [1], Opdivo (antibody) yielded an EC50 of 0.153 nM. The TOP OD in assay [1] was 2.99 OD450; in assay [2], 0.048 OD450; in assay [3], 0.048 OD450.

For the origin of these results see US20260055173A1.
